Holding throughout (details): both partners purified
Assay [1] concerns the target T1, biotinylated integrin β1 transmembrane and cytoplasmic tail polypeptide (β1-TM–CT) in nanodiscs (UniProt P09055 726-798, biotin (biotin-maleimide)).
T1 construct: integrin β1 TM and CT, residues 726-798; embedded in MSP2N2 nanodiscs with 10% PIP2 or PIP3 and 90% DMPC, on average one TM–CT per nanodisc; held on streptavidin beads; also called b1; source: E. coli BL21 (DE3) Rosetta 2, inclusion bodies, purified (IMAC, cation exchange)
Briefly: flow cytometry-based reporter-displacement assay (FC-RDA) on beads; biotinylated TM–CT in 10% PIP3/90% DMPC nanodiscs on streptavidin beads; reporter 50 nM 647–KIND2, unlabelled competitor titrated; 20 mM Tris pH 7.5, 200 mM NaCl, room temperature; IC50 of individual experiments; charged lipids contribute to the binding. On the technique in general: In flow cytometry, cells or beads pass a laser one at a time.

In assay [2] the target is T2, biotinylated integrin β3 transmembrane and cytoplasmic tail polypeptide (β3-TM–CT) in nanodiscs (UniProt O54890 715-787, biotin (biotin-maleimide)).
T2 construct: integrin β3 TM and CT, residues 715-787; embedded in MSP2N2 nanodiscs with 10% PIP2 or PIP3 and 90% DMPC; held on streptavidin beads; also called b3; source: E. coli BL21 (DE3) Rosetta 2, inclusion bodies, purified (IMAC, cation exchange)
T2 sequence (looked up): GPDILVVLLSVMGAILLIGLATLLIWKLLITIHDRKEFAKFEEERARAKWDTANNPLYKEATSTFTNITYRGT
Briefly: flow cytometry-based reporter-displacement assay (FC-RDA) on beads; biotinylated TM–CT in 10% PIP2/90% DMPC nanodiscs on streptavidin beads; reporter 50 nM 647–KIND2, unlabelled competitor titrated; 20 mM Tris pH 7.5, 200 mM NaCl, room temperature; IC50 of individual experiments; charged lipids contribute to the binding.

In assay [3] the target is T1, biotinylated integrin β1 transmembrane …. The assay is described as above.
For assay [4] the target is unchanged. The assay is described as above. This is another data set of the same source.
Assay [5] deals with T2, biotinylated integrin β3 transmembrane …. The experiment in a line: flow cytometry-based reporter-displacement assay (FC-RDA) on beads; biotinylated TM–CT in PIP2-containing nanodiscs on streptavidin beads; reporter 565–THD1-K402E, unlabelled competitor titrated; IC50 of individual experiments.
Assay [6] has as its target T1, biotinylated integrin β1 transmembrane …. Described as above.
The target in assay [7] is T2, biotinylated integrin β3 transmembrane …. Briefly: flow cytometry-based reporter-displacement assay (FC-RDA) on beads; biotinylated TM–CT in 10% PIP3/90% DMPC nanodiscs on streptavidin beads; reporter 50 nM 647–KIND2, unlabelled competitor titrated; 20 mM Tris pH 7.5, 200 mM NaCl, room temperature; IC50 of individual experiments; charged lipids contribute to the binding.

The target is the same in assay [8]. Briefly: flow cytometry-based reporter-displacement assay (FC-RDA) on beads; biotinylated TM–CT in 10% PIP3/90% DMPC nanodiscs on streptavidin beads; reporter 100 nM 565–THD1, unlabelled competitor titrated; 20 mM Tris pH 7.5, 200 mM NaCl, room temperature; IC50 of individual experiments; charged lipids contribute to the binding.
Assay [9] has the same target. The experiment in a line: flow cytometry-based reporter-displacement assay (FC-RDA) on beads; biotinylated TM–CT in PIP3-containing nanodiscs on streptavidin beads; reporter 647–KIND2-Y13A, unlabelled competitor titrated; IC50 of individual experiments.
In assay [10] the target is T1, biotinylated integrin β1 transmembrane …. The description is as above.
Assay [11] has the same target. The experiment in a line: flow cytometry-based reporter-displacement assay (FC-RDA) on beads; biotinylated TM–CT in 10% PIP2/90% DMPC nanodiscs on streptavidin beads; reporter 100 nM 565–THD1, unlabelled competitor titrated; 20 mM Tris pH 7.5, 200 mM NaCl, room temperature; IC50 of individual experiments; charged lipids contribute to the binding.
Assay [12] addresses T2, biotinylated integrin β3 transmembrane …. Briefly: flow cytometry-based reporter-displacement assay (FC-RDA) on beads; biotinylated TM–CT in PIP2-containing nanodiscs on streptavidin beads; reporter 647–KIND2-Y13A, unlabelled competitor titrated; IC50 of individual experiments.
Assay [13] deals with T1, biotinylated integrin β1 transmembrane …. Described as above.
The target in assay [14] is T2, biotinylated integrin β3 transmembrane …. Briefly: flow cytometry-based reporter-displacement assay (FC-RDA) on beads; biotinylated TM–CT in 10% PIP3/90% DMPC nanodiscs on streptavidin beads; reporter 100 nM 565–THD1, unlabelled competitor titrated; 20 mM Tris pH 7.5, 200 mM NaCl, room temperature; IC50 of individual experiments; charged lipids contribute to the binding. The source holds these as a separate data set.

For assay [15], the target named is T1, biotinylated integrin β1 transmembrane …. The assay is described as above.

Where “and” joins values, the source holds several entries; their conditions need not be identical. Equal entries are not always repeated.

T1 sequence (P09055 726-798): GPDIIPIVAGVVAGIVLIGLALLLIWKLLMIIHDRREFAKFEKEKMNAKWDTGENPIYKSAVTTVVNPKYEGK

B1: THD1 K402E (domain or fragment, UniProt P26039 1-405, looked up)
chain: MVALSLKISIGNVVKTMQFEPSTMVYDACRMIRERIPEALAGPPNDFGLFLSDDDPKKGIWLEAGKALDYYMLRNGDTMEYRKKQRPLKIRMLDGTVKTIMVDDSKTVTDMLMTICARIGITNHDEYSLVRELMEEKKDEGTGTLRKDKTLLRDEKKMEKLKQKLHTDDELNWLDHGRTLREQGVEEHETLLLRRKFFYSDQNVDSRDPVQLNLLYVQARDDILNGSHPVSFDKACEFAGFQCQIQFGPHNEQKHKAGFLDLKDFLPKEYVKQKGERKIFQAHKNCGQMSEIEAKVRYVKLARSLKTYGVSFFLVKEKMKGKNKLVPRLLGITKECVMRVDEKTKEVIQEWSLTNIKRWAASPKSFTLDFGDYQDGYYSVQTTEGEQIAQLIAGYIDIILKEKKS
notes: talin-1 (TLN1) head domain, residues 1-405, K402E; source: E. coli (DE3) Rosetta 2, purified (IMAC, SEC); not shown: His10-SUMO, N-terminal, cleaved
In general, IC50 refers to the point on the concentration scale where inhibition reaches its midpoint. The low end stands for inhibition by little substance, the high end for a need for much substance. As to B1, the concentration for half-maximal inhibition (IC50) in assay [1] is 0.332 µM and 0.291 µM and 0.217 µM and 0.447 µM; in [2], 0.186 µM and 0.206 µM and 0.276 µM and 0.136 µM; in [3] it was 0.271 µM and 0.366 µM and 0.201 µM and 0.258 µM.

B2: kindlin-2 (KIND2) (natural protein, UniProt Q8CIB5 1-680, looked up)
chain: MALDGIRMPDGCYADGTWELSVHVTDLNRDVTLRVTGEVHIGGVMLKLVEKLDVKKDWSDHALWWEKKRTWLLKTHWTLDKCGIQADAKLQFTPQHKLLRLQLPNMKYVKVKVNFSDRVFKAVSDICKTFNIRHPEELSLLKKPRDPTKKKKKKLDDQSEDEALELEGPLIMPGSGSIYSSPGLYSKTMTPTYDAHDGSPLSPTSAWFGDSALSEGNPGILAVSQPVTSPEILAKMFKPQALLDKAKTNQGWLDSSRSLMEQDVKENEALLLRFKYYSFFDLNPKYDAIRINQLYEQAKWALLLEEIECTEEEMMMFAALQYHINKLSIMTSENHLNNSDKEVDEVDAALSDLEITLEGGKTSTILGDITSIPELADYIKVFKPKKLTLKGYKQYWCTFKDTSISCYKSREESSGTPAHQLNLRGCEVTPDVNISGQKFNIKLLIPVAEGMNEIWLRCDNEKQYAHWMAACRLASKGKTMADSSYNLEVQNILSFLKMQHLNPDPQLIPDQITTDVNPECLVSPRYLKKYKSKQITARILEAHQNVAQMSLIEAKMRFIQAWQSLPEFGITHFIARFQGGKREELIGIAYNRLIRMDASTGDAIKTWRFSNMKQWNVNWEIKMVTVEFADEVRLSFICTEVDCKVVHEFIGGYIFLSTRAKDQNESLDEEMFYKLTSGWV
notes: kindlin-2 (KIND2), recombinant; with the F1 loop and the PH domain (unlike ΔKIND2); source: E. coli Rosetta, purified (IMAC, SEC); not shown: His10-SUMO, N-terminal, cleaved
As to B2, the 50% inhibitory concentration (IC50) in assay [4] was 0.151 µM and 0.155 µM and 0.176 µM and 0.077 µM; in assay [5], 0.116 µM and 0.065 µM; in assay [6], 0.514 µM and 0.512 µM and 0.396 µM and 0.487 µM; in [7], 0.079 µM and 0.09 µM and 0.069 µM; in assay [8], 0.76 µM and 0.573 µM and 0.678 µM.

B3: KIND2 Y13A (natural protein, UniProt Q8CIB5 1-680, looked up)
chain: MALDGIRMPDGCAADGTWELSVHVTDLNRDVTLRVTGEVHIGGVMLKLVEKLDVKKDWSDHALWWEKKRTWLLKTHWTLDKCGIQADAKLQFTPQHKLLRLQLPNMKYVKVKVNFSDRVFKAVSDICKTFNIRHPEELSLLKKPRDPTKKKKKKLDDQSEDEALELEGPLIMPGSGSIYSSPGLYSKTMTPTYDAHDGSPLSPTSAWFGDSALSEGNPGILAVSQPVTSPEILAKMFKPQALLDKAKTNQGWLDSSRSLMEQDVKENEALLLRFKYYSFFDLNPKYDAIRINQLYEQAKWALLLEEIECTEEEMMMFAALQYHINKLSIMTSENHLNNSDKEVDEVDAALSDLEITLEGGKTSTILGDITSIPELADYIKVFKPKKLTLKGYKQYWCTFKDTSISCYKSREESSGTPAHQLNLRGCEVTPDVNISGQKFNIKLLIPVAEGMNEIWLRCDNEKQYAHWMAACRLASKGKTMADSSYNLEVQNILSFLKMQHLNPDPQLIPDQITTDVNPECLVSPRYLKKYKSKQITARILEAHQNVAQMSLIEAKMRFIQAWQSLPEFGITHFIARFQGGKREELIGIAYNRLIRMDASTGDAIKTWRFSNMKQWNVNWEIKMVTVEFADEVRLSFICTEVDCKVVHEFIGGYIFLSTRAKDQNESLDEEMFYKLTSGWV
notes: kindlin-2 (KIND2), recombinant, Y13A; source: E. coli Rosetta, purified (IMAC, SEC); not shown: His10-SUMO, N-terminal, cleaved
Regarding B3, the IC50 in [9] was 0.121 µM and 0.167 µM and 0.233 µM; in assay [10], 0.056 µM and 0.119 µM and 0.06 µM; in assay [11], 0.203 µM and 0.479 µM and 0.29 µM; in [12], 0.112 µM and 0.238 µM and 0.305 µM; in assay [13] it was 0.078 µM and 0.091 µM and 0.124 µM; in assay [14] it was 0.176 µM and 0.234 µM and 0.205 µM and 0.083 µM. Besides, the IC50 in assay [15] is 0.168 µM and 0.223 µM and 0.116 µM.

For the origin of these results see publication PMC10716038, “Talin and kindlin use integrin tail allostery and direct binding to activate integrins” (Nature Structural & Molecular Biology, 2023).
